B1: recombinant murine IL-33 (ligand)
chain: SIQGTSLLTQSPASLSTYNDQSVSFVLENGCYVINVDDSGKDQEQDQVLLRYYESPCPASQSGDGVDGKKLMVNMSPIKDTDIWLHANDKDYSVELQRGDVSPPEQAFFVLHKKSSDFVSFECKNLPGTYIGVKDNQLALVEEKDESCNNIMFKLSKI
modifications: Reduced (active) form with free cysteines. Limits are not given; the usual commercial (BioLegend) mature mouse IL-33, Ser109-Ile266, is assumed, matching the candidate chain 109-266

Experiments:
[1] = molecular target: T1, H. polygyrus Alarmin Release Inhibitor (HpARI), full-length (Heligmosomoides polygyrus); experiment: SPR; HpARI, HpARI_CCP1/2 or HpARI_CCP2/3 captured via the hexa-His tag and covalently stabilised on an NTA chip (400 RU); mIL-33 2.47-200 nM injected, single-cycle kinetics, 25 °C; 10 mM NaH2PO4 pH 7.5, 150 mM NaCl, 50 μM EDTA, 0.05% P20; global fit of a 1:1 model with mass transport; settings: both partners purified
T1 construct: It was cloned into the secretion vector pSecTAG2A, so the native signal peptide may be missing and a vector leader used (surmise); also called full-length HpARI; source: Expi293F cells, transfected (pSecTAG2A), purified from supernatant (HisTrap excel, HiTRAP chelating HP Ni column); not shown: His6, C-terminal, kept

recombinant murine IL-33 = molecular target: B1; experiment: as above; settings: both partners purified

Binder | Kd [1] | koff [1] | Kd (recombinant murine IL-33) | koff (recombinant murine IL-33)
B1 | 1.1 nM | 0.00015 s⁻¹ | – | –
HpARI_CCP2/3 (HpARI truncation lacking CCP1) (domain or fragment) TYDPTPNTPTTVGKDGIWNGVDYRNGSTVKPYCDTGPVINGSSKAVCVSGKWVPTLGVCPKMCSIGSLKENGKFVDVTATTKGDELNPPPREQTLIPIVRKVDKDKVQHGVKVVALCKAEDSTTAAEGVQEFECDNGKWKPEPVPCP | – | – | 1.4 nM | –
HpARI_CCP1/2 (HpARI truncation lacking CCP3) (domain or fragment) AGQRCRFTDVERDKGYTGMLLKGRLRKTAGNGRTVELICGRGNHNYTCESGVLKESSPRQARCGCKGILEMLFDMPKEERPSPMYDSVTYDPTPNTPTTVGKDGIWNGVDYRNGSTVKPYCDTGPVINGSSKAVCVSGKWVPTLGVCPK | – | – | 9.8 nM | 0.003 s⁻¹
